These results are taken from the supplement of paper PMC9170038.

The series has as its system MS2 coat protein. Description: apparent KD of MS2 coat protein; designed switch direction (-1 OFF switch, 1 ON switch): -1; higher = weaker reporter binding. As to conditions: Eterna round: R98. How it is done:
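RNA-MaP: designed FMN/MS2 RNA switches (84 nt design region) are transcribed on-chip within common flanks and titrated with SNAP-549-labelled MS2 coat protein (about 1-3000 nM) in 100 mM Tris pH 7.5, 80 mM KCl, 4 mM MgCl2, without or with 200 uM FMN. Median apparent KD per design; activation ratio = KD,OFF / KD,ON.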

Take “UUCUGUGCCCAAAGUUUAAGCACAUGAGGAUCACCCAUGUGAAAGGAUAUGUGGCAUGUAAUGUUAUAGAAGGUUCACAAUCAA [Esadi]”: the “apparent KD of MS2 coat protein” value reads like this: (input ligand: FMN 200 uM) 23.9 nM; (input ligand: none) 15.8 nM.
Take “UGGUAUAAGGGCAUUACACAUGAGGAUCACCCAUGUACGUUAGAGGAUAUGCAUUCCAGUCGAACGUAGAAGGUUAGAGAAGGG [Morebubblesahh#8abcdefghij]”: the “apparent KD of MS2 coat protein” value turned out to be 150 nM (input ligand: FMN 200 uM) and 113 nM (input ligand: none).
The like results for “CCAUAAAAGAUCCAAAAUUACAACAUGAGGAUCACCCAUGUGCAGGAUAUCGUGAAAGUAAAAUACGAGAAGGGCAAGAACUGC [salish99_ExNG3_r2_004]” were, in that order, 425 nM and 430 nM.
On to “UCAUAAUAGAUCCUAUUUAUCUACAUGAGGAUCACCCAUGUGCAGGAUAUGCUAAAAUUAAAAUAGCAGAAGGGCAAUUUCAGC [JR_ExcNG3_Sub013]”, for which the “apparent KD of MS2 coat protein” value was 359 nM (input ligand: FMN 200 uM) and 94.3 nM (input ligand: none).
